According to patent publication US20020034767:

Test system: G protein βγ subunits

## β-adrenergic receptor kinase
  rhodopsin phosphorylation in the presence or absence of 100 nM G protein βγ subunits: βARK is significantly activated in the presence of G protein βγ subunits
